The results in this text go back to patent US20170114146A1 (Hoffmann-La Roche, published 2017).

Assay in all cases: cell-based or functional assay
Assay [1] has as its target CD3 antigen expressed on Jurkat-NFAT reporter cells (human, UniProt P07766 23-207).
Assay [2] addresses T1, CD33 (myeloid cell surface antigen CD33) on human AML cell lines HL-60 and HEL (human, UniProt P20138 18-364).
Assay [3] has as its target T1, CD33 (myeloid cell surface antigen …). This is another data set of the same source.

T1 sequence (P20138 18-364): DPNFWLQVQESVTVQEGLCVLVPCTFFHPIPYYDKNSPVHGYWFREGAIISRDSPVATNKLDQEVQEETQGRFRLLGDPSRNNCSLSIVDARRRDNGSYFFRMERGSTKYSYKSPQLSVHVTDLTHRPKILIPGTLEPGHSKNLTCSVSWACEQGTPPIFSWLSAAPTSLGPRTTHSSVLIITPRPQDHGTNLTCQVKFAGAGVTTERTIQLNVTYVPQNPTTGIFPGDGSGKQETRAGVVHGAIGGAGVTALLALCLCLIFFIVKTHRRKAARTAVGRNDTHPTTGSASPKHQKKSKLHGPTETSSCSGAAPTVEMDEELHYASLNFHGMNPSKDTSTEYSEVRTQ
CD3 antigen expressed on Jurkat-NFAT reporter cells, sequence (P07766 23-207 limits assumed): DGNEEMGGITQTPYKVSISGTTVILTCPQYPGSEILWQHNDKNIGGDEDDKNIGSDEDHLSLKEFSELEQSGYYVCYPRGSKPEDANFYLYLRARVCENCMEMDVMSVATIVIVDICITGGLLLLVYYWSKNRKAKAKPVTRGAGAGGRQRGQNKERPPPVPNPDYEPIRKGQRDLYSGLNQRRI

B1: CD33 CD3 TCB molecule B ("2+1 IgG CrossFab, inverted" with charge modifications, CD33 binders based on anti-CD33 antibody 2) (bispecific antibody)
chain 1: EVQLLESGGGLVQPGGSLRLSCAASGFTFSTYAMNWVRQAPGKGLEWVSRIRSKYNNYATYYADSVKGRFTISRDDSKNTLYLQMNSLRAEDTAVYYCVRHGNFGNSYVSWFAYWGQGTLVTVSSASVAAPSVFIFPPSDEQLKSGTASVVCLLNNFYPREAKVQWKVDNALQSGNSQESVTEQDSKDSTYSLSSTLTLSKADYEKHKVYACEVTHQGLSSPVTKSFNRGEC
chain 2: EVQLVQSGAEVKKPGSSVKVSCKASGYTITDSNIHWVRQAPGQSLEWIGYIYPYNGGTDYNQKFKNRATLTVDNPTNTAYMELSSLRSEDTAFYYCVNGNPWLAYWGQGTLVTVSSASTKGPSVFPLAPSSKSTSGGTAALGCLVEDYFPEPVTVSWNSGALTSGVHTFPAVLQSSGLYSLSSVVTVPSSSLGTQTYICNVNHKPSNTKVDEKVEPKSCDKTHTCPPCPAPEAAGGPSVFLFPPKPKDTLMISRTPEVTCVVVDVSHEDPEVKFNWYVDGVEVHNAKTKPREEQYNSTYRVVSVLTVLHQDWLNGKEYKCKVSNKALGAPIEKTISKAKGQPREPQVCTLPPSRDELTKNQVSLSCAVKGFYPSDIAVEWESNGQPENNYKTTPPVLDSDGSFFLVSKLTVDKSRWQQGNVFSCSVMHEALHNHYTQKSLSLSP
chain 3: not shown
chain 4: DIQLTQSPSTLSASVGDRVTITCRASESLDNYGIRFLTWFQQKPGKAPKLLMYAASNQGSGVPSRFSGSGSGTEFTLTISSLQPDDFATYYCQQTKEVPWSFGQGTKVEVKRTVAAPSVFIFPPSDRKLKSGTASVVCLLNNFYPREAKVQWKVDNALQSGNSQESVTEQDSKDSTYSLSSTLTLSKADYEKHKVYACEVTHQGLSSPVTKSFNRGEC
B1: the “EC50, activation of Jurkat-NFAT reporter cells via CD3 (luminescence, 5 h, HL-60 target cells, E:T 2.5:1)” value in assay [1] and in assay [2] was 0.0043 nM in each case. In assay [3], the “EC50 [pM] 42 h, T-cell mediated killing of HL-60 tumor cells (LDH release, human pan T cells, E:T 5:1)” value is 18.5 pM.

B2: CD33 CD3 TCB molecule A ("2+1 IgG CrossFab, inverted" with charge modifications, CD33 binders based on anti-CD33 antibody 1) (bispecific antibody)
chain 1: QVQLVQSGAEVKKPGSSVKVSCKASGYTFTDYNMHWVRQAPGQGLEWIGYIYPYNGGTGYNQKFKSKATITADESTNTAYMELSSLRSEDTAVYYCARGRPAMDYWGQGTLVTVSSASTKGPSVFPLAPSSKSTSGGTAALGCLVEDYFPEPVTVSWNSGALTSGVHTFPAVLQSSGLYSLSSVVTVPSSSLGTQTYICNVNHKPSNTKVDEKVEPKSCDKTHTCPPCPAPEAAGGPSVFLFPPKPKDTLMISRTPEVTCVVVDVSHEDPEVKFNWYVDGVEVHNAKTKPREEQYNSTYRVVSVLTVLHQDWLNGKEYKCKVSNKALGAPIEKTISKAKGQPREPQVCTLPPSRDELTKNQVSLSCAVKGFYPSDIAVEWESNGQPENNYKTTPPVLDSDGSFFLVSKLTVDKSRWQQGNVFSCSVMHEALHNHYTQKSLSLSP
chain 2: not shown
chain 3: B1 chain 1
chain 4: DIQMTQSPSSLSASVGDRVTITCRASESVDNYGISFMNWFQQKPGKAPKLLIYAASNQGSGVPSRFSGSGSGTDFTLTISSLQPDDFATYYCQQSKEVPWTFGQGTKVEIKRTVAAPSVFIFPPSDRKLKSGTASVVCLLNNFYPREAKVQWKVDNALQSGNSQESVTEQDSKDSTYSLSSTLTLSKADYEKHKVYACEVTHQGLSSPVTKSFNRGEC
For the molecule B2, the “EC50, activation of Jurkat-NFAT reporter cells via CD3 (luminescence, 5 h, HL-60 target cells, E:T 2.5:1)” value in assay [1] and in assay [2] was 0.0794 nM each time. The “EC50 [pM] 42 h, T-cell mediated killing of HL-60 tumor cells (LDH release, human pan T cells, E:T 5:1)” value in assay [3] is 19.8 pM.
